The text below walks through data of paper PMC1851384, “Involvement of maternal embryonic leucine zipper kinase (MELK) in mammary carcinogenesis through interaction with Bcl-G, a pro-apoptotic member of the Bcl-2 family” (Breast Cancer Research, 2007).

The experiment has as its target T1, His-tagged wild-type MELK recombinant protein (human, UniProt Q14680-1 1-651).
T1 construct: pET21a usually adds a C-terminal His6 tag; also called WT-MELK; His-tagged WT-MELK; source: E. coli BL21 codon-plus (DE3) RIL, purified (Ni-NTA superflow, nondenaturing)
Put plainly: pull-down; in vitro binding assay: 10 ug His-tagged MELK held by anti-6XHis antibody on protein G Sepharose; 5 ug Bcl-GL recombinant protein in 500 ul binding buffer (50 mM Tris, 75 mM NaCl, 10 mM MgCl2, 1 mM DTT, 2% BSA, 100 uM ATP), 30 minutes at 4°C; blot with anti-Bcl-GL. The following applies: both partners purified.

T1 sequence (Q14680 whole entry): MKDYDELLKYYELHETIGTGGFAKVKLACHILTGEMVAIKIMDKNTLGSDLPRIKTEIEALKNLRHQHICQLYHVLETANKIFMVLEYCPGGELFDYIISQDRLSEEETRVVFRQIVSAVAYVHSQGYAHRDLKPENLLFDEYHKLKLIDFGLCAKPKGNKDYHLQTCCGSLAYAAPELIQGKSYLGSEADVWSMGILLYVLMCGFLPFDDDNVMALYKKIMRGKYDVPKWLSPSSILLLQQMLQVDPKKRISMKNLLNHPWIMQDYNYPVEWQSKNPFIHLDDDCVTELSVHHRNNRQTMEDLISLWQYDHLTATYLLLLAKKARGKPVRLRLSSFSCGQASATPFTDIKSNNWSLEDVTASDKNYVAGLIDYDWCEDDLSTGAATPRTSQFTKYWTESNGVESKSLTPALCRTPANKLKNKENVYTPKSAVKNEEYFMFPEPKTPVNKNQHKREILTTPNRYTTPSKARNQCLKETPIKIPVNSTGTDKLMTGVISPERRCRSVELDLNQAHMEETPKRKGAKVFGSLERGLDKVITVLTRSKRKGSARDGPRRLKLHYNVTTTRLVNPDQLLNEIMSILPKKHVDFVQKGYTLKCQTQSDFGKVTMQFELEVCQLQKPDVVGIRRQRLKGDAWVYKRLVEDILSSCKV

B1: Bcl-GL recombinant protein (GST removed) (natural protein, human, UniProt Q9BZR8-1 1-327, looked up)
chain: MCSTSGCDLEEIPLDDDDLNTIEFKILAYYTRHHVFKSTPALFSPKLLRTRSLSQRGLGNCSANESWTEVSWPCRNSQSSEKAINLGKKKSSWKAFFGVVEKEDSQSTPAKVSAQGQRTLEYQDSHSQQWSRCLSNVEQCLEHEAVDPKVISIANRVAEIVYSWPPPQATQAGGFKSKEIFVTEGLSFQLQGHVPVASSSKKDEEEQILAKIVELLKYSGDQLERKLKKDKALMGHFQDGLSYSVFKTITDQVLMGVDPRGESEVKAQGFKAALVIDVTAKLTAIDNHPMNRVLGFGTKYLKENFSPWIQQHGGWEKILGISHEEVD
notes: source: E. coli BL21 codon-plus RIL, purified (Glutathione Sepharose 4B), GST removed with PreScission protease
Regarding B1, the binding result is recorded as “binds”.
